How the values were obtained:
[1] = target: OG488-EGR labeled Gla-domainless factor IXa (GD-FIXa) (human) (UniProt P00740); assay: fluorescence polarisation
[2] = target: OG488-EGR labeled wild-type factor IXa (human) (UniProt P00740); assay: fluorescence polarisation

UniProt P00740, sequence (P00740 47-191, chain 1 of 2): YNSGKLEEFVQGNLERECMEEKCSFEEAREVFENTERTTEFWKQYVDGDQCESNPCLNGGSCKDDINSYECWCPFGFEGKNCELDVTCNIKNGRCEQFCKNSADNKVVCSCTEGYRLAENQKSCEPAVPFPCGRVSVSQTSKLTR
UniProt P00740, sequence (P00740 227-461, chain 2 of 2): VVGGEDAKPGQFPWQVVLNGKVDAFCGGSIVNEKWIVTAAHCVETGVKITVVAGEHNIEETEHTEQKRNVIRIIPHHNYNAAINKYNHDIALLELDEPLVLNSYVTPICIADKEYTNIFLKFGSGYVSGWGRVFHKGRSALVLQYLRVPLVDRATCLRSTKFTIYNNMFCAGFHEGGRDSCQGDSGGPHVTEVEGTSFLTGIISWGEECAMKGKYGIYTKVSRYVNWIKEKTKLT

Kd [1]: 310 nM
Kd [2]: 1.5 nM
Substance: human recombinant factor VIIIa (complex)

Source: PMC3511649
